Assay results as given in article PMC2859563.

Target: T1, SmcR (Vibrio vulnificus, UniProt Q9L8G8 1-205)
T1 sequence: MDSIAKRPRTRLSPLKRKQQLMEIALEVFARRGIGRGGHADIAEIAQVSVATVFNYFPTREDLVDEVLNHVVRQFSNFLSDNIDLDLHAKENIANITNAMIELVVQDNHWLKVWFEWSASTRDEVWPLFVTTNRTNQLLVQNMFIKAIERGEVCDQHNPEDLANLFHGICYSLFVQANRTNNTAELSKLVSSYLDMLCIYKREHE
Assay: ITC

B1: PvvpE-mod (dsDNA)
DNA 1: TTCTTATTGATAAATTTGTGAATAAAA
DNA 2: TTTTATTCACAAATTTATCAATAAGAA
  Kd: 76 nM

B2: PvvpE (dsDNA)
DNA 1: ATCTTATTGATAAATCTGCGTAAAAAA
DNA 2: TTTTTTACGCAGATTTATCAATAAGAT
  Kd: 2800 nM
